The source of these data is US9266930.

In assay [1] the target is T1, HLA-DR6w19 (DRB1*1302) (human).
T1 chain 1: not shown
T1 chain 2: not shown

Assay [2] deals with T2, HLA-DR5w12 (DRB1*1201) (human).
T2 chain 1: not shown
T2 chain 2: not shown

Assay [3] deals with T3, HLA-DR8w2 (DRB1*0802) (human).
T3 chain 1: not shown
T3 chain 2: not shown

For assay [4], the target named is T4, HLA-DRw53 (DRB4*0101) (human).
T4 chain 1: not shown
T4 chain 2: not shown

Assay [5] deals with T5, HLA-DR7 (DRB1*0701) (human).
T5 chain 1: not shown
T5 chain 2: not shown

Assay [6] concerns the target T6, HLA-DR9 (DRB1*0901) (human).
T6 chain 1: not shown
T6 chain 2: not shown

In assay [7] the target is HLA-A*1101 (Human).
For assay [8], the target named is HLA-A*1101 (Human). The source holds these as a separate data set.
The target in assay [9] is HLA-DR1 (DRB1*0101) (human).
For assay [10], the target named is HLA-DR3 (DRB1*0301) (human).
The target of assay [11] is HLA-A*1101 (human).
For assay [12], the target named is HLA-DR4w15 (DRB1*0405) (human).
Assay [13] addresses HLA-DR2w2β2 (DRB5*0101) (human).
The target in assay [14] is HLA-A*1101 (human). The assay can be described thus: competition with 125I-labeled probe peptide for purified HLA, gel filtration. The following applies: scale: ratio.
The target of the next assay is HLA-A*0301 (human). The description is as above. As to conditions: scale: ratio.
Assay [15] addresses HLA-DR4w4 (DRB1*0401) (human).
Assay [16] deals with HLA-DR5w11 (DRB1*1101) (human).
For assay [17], the target named is T2, HLA-DR5w12 (DRB1*1201) (human).
Assay [18] addresses T3, HLA-DR8w2 (DRB1*0802) (human).
Assay [19] addresses T5, HLA-DR7 (DRB1*0701) (human).

Like-named read-outs stand apart in the source and are kept apart here.

In the case of LIDVHDLISDMIKKE (modifications not checked) [… (Pf EXP 47)], the binding affinity ratio (IC50 of standard peptide / IC50 of test peptide) in assay [1] is 0.0004; in assay [2], 0.0001; in [3] it was 0.0096; in [4] it was 0.094; in assay [5], 0.01; in [6], 0.043.

As to NGREGKDEDK (modifications not checked) [… (CSP 85)], in the assay with HLA-A*1101 (Human) [7], the binding affinity ratio (IC50 of standard peptide / IC50 of test peptide) was found to be 0.0002.

Turning to NTRVLNELNY (modifications not checked) [… (CSP 31)], the binding affinity ratio (IC50 of standard peptide / IC50 of test peptide) with HLA-A*1101 (Human) [8] amounted to 0.0002.

With LGNVKYLVIVFLIFF (modifications not checked), the binding affinity ratio (IC50 of standard peptide / IC50 of test peptide) in assay [9] was 0.0006; in [10], -0.0008.

In the case of ADSAWENVK (modifications not checked) [… (Pf SSP2 position 216)], the binding affinity ratio (IC50 of standard peptide / IC50 of test peptide) with HLA-A*1101 (human) [11] is 0.0009.

Turning to NLYNELEMNY (modifications not checked) [… (CSP 46)], in the assay with HLA-A*1101 (Human) [7], the binding affinity ratio (IC50 of standard peptide / IC50 of test peptide) is 0.0002.

Regarding ILSVFFLALFFIIFN (modifications not checked), the binding affinity ratio (IC50 of standard peptide / IC50 of test peptide) in assay [12] was -0.0009; in assay [13], 0.0091; in assay [10], -0.0008.

GVSSKKKNKK (modifications not checked) [… (P. falciparum EXP, position 32, 10 amino acids)]: the results for the binding affinity ratio (relative to standard peptide) with HLA-A*1101 (human) [14] and with HLA-A*0301 (human) were 0.0002 and 0.0011, respectively.

In the case of CGVWDEWSPCSVTCG (modifications not checked), the binding affinity ratio (IC50 of standard peptide / IC50 of test peptide) in assay [9] is 0.0001; in assay [15], -0.0007; in assay [13], -0.0006; in [16], -0.0002.

Take RDGNNEDNEK (modifications not checked) [… (P. falciparum CSP, position 95)]: in the assay with HLA-A*1101 (Human) [8], the binding affinity ratio (IC50 of standard peptide / IC50 of test peptide) was found to be 0.0002.

As for GVSSKKKNK (modifications not checked) [… (P. falciparum EXP, position 32, 9 amino acids)], the binding affinity ratio (relative to standard peptide) stood at 0.0002 in the assay with HLA-A*1101 (human) [14] and 0.0001 with HLA-A*0301 (human).

Regarding EVNKRKSKY (modifications not checked) [… (P. falciparum EXP, position 66)], the binding affinity ratio (IC50 of standard peptide / IC50 of test peptide) with HLA-A*1101 (Human) [8] stood at 0.0002.

With AGGLALLACAGLAYK (modifications not checked), the binding affinity ratio (IC50 of standard peptide / IC50 of test peptide) is -0.0007 in [15] and -0.0002 in assay [16].

With VKYLVIVFLIFFDLF (modifications not checked), the binding affinity ratio (IC50 of standard peptide / IC50 of test peptide) in [9] worked out at 0.0001; in [15], 0.003.

Turning to DGNNEDNEK (modifications not checked) [… (Pf CSP 96, A11 motif peptide)], the binding affinity ratio (IC50 of standard peptide / IC50 of test peptide) in the assay with HLA-A*1101 (Human) [8] stood at 0.0002.

Regarding IGPFMKAVCVEVEKT (modifications not checked) [… (Pf SSP2 227)], the binding affinity ratio (IC50 of standard peptide / IC50 of test peptide) in [1] is 0.0003; in assay [2], 0.0038; in assay [3] it was -0.0003; in assay [4] it was 0.07; in [5], 0.0019; in assay [6] it was 0.082.

Regarding ANQLVVILTDGIPDS (modifications not checked) [… (Pf SSP2 153)], the binding affinity ratio (IC50 of standard peptide / IC50 of test peptide) was 0.007 in assay [1]; 0.0003 in assay [2]; -0.0002 in assay [3]; 0.0054 in [5]; 0.042 in [6].

Turning to LIDVHDLISDMIKKE (modifications not checked), the binding affinity ratio (IC50 of standard peptide / IC50 of test peptide) is 0.0076 in assay [12] and 0.01 in [10].

For the molecule MKILSVFFLALFFII (modifications not checked) [… (Pf EXP 1)], the binding affinity ratio (IC50 of standard peptide / IC50 of test peptide) in [1] is 0.0019; in [2] it was 0.0023; in [3], 0.0023; in assay [5] it was 0.036; in assay [6], 0.006.

With CGNGIQVRIK (modifications not checked) [… (Pf CSP 377, A11 motif peptide)], in the assay with HLA-A*1101 (Human) [8], the binding affinity ratio (IC50 of standard peptide / IC50 of test peptide) is 0.0002.

As to NDIEKKICK (modifications not checked) [NDIEKKIK (CSP 401)], the binding affinity ratio (IC50 of standard peptide / IC50 of test peptide) with HLA-A*1101 (Human) [8] came to 0.0002.

CVEVEKTASCGVWDE (modifications not checked): the binding affinity ratio (IC50 of standard peptide / IC50 of test peptide) in assay [12] was -0.0009; in [9], 0.0004; in [15], 0.0021; in assay [13], -0.0005; in assay [16], -0.0002.

On to LDYENDIEK (modifications not checked), for which the binding affinity ratio (IC50 of standard peptide / IC50 of test peptide) with HLA-A*1101 (Human) [7] came out at 0.0002.

Consider NLPNDKSDR (modifications not checked) [… (Pf SSP2 406)], for which the binding affinity ratio (IC50 of standard peptide / IC50 of test peptide) in the assay with HLA-A*1101 (human) [11] was 0.0002.

As for NGDNGREGK (modifications not checked) [… (CSP 82)], the binding affinity ratio (IC50 of standard peptide / IC50 of test peptide) in the assay with HLA-A*1101 (Human) [7] turned out to be 0.0002.

In the case of TVLLGGVGLVLYNTE (modifications not checked) [… (Pf EXP 90)], the results for the binding affinity ratio (IC50 of standard peptide / IC50 of test peptide) in [17], in assay [18] and in assay [19] were 0.0004, -0.0002 and 0.0007, respectively.

Regarding LDYENDIEKK (modifications not checked), the binding affinity ratio (IC50 of standard peptide / IC50 of test peptide) with HLA-A*1101 (Human) [7] was found to be 0.0002.

Regarding RHPFKIGSSDPADNA (modifications not checked) [… (Pf EXP 107)], the binding affinity ratio (IC50 of standard peptide / IC50 of test peptide) in [1] is 0.0003; in [2], 0.0001; in assay [3], 0.038; in assay [5], -0.0003; in assay [6] it was 0.095.
